Experimental data taken from patent US10864251B2, “Peptides of syndecan-1 for inhibiting angiogenesis” (Wisconsin Alumni Research Foundation, priority 2006, dated 2020).
Read-outs that look alike come from different tables or passages of the source. Where no end group is shown, it is not given here.

Tests used:
B82L fibroblasts [1] = type: cell-based, mouse; conditions: 6 h
Method: FIGS. 6A-6H—Inhibition of B82L fibroblast and HMEC-1 cell attachment and spreading on VN by synstatin82-130. B82L fibroblasts, which rely on the αvβ5 integrin for attachment to VN, and human dermal microvascular endothelial cells, which rely on both the αvβ3 and αvβ5 integrins for attachment to VN, were plated in the absence of peptide (FIGS. 6A, 6E) or in the presence of 0.1 (FIGS. 6B, 6F), 0.3 (FIGS. 6C, 6G) or 1 μM (FIGS. 6D, 6H) synstatin82-130 for 2 hr and processed as described in FIG. 2.
Cell adhesion and spreading assays were performed with modification to the previous procedures (Lebakken and Rapraeger, 1996. Briefly, human plasma vitronectin or fibronectin at 10-30 μg/ml were applied to nitrocellulose-coated ten well slides (Erie Scientific) and incubated for 1-2 h at 37° C. Slides were blocked with 1.0% heat-denatured bovine serum albumin for a minimum of 30 min at 37° C. Cells were detached from the substratum using 5 mM EDTA in Tris-buffered saline and resuspended in HEPES-buffered culture medium containing 0.1% heat-denatured BSA. Cells were plated at a density of 15,000 cells per well and allowed to attach and spread for 2 h prior to fixation in 4% paraformaldehyde in CMF-PBS. For fluorescence microscopy, fixed cells were permeabilized in 0.2% Triton X-100, labeled with rhodamine-conjugated phalloidin and analyzed using fluorescence microscopy. […]

B82L fibroblasts [2] = conditions: B82L cells; McQuade et al., 2006; read-out: IC50, recognition of VN; cited from earlier work
[3] = tested on: mouse aortic endothelial cells; test: Cell spreading on VN, mouse aortic endothelial cells; type: cell-based; conditions: 1 μM competitor
Method: FIGS. 10A-10D—Dependence of HMEC cell attachment and spreading on integrin activation by Sdc1 and its inhibition by SSTN. (FIG. 10A) HMECs were plated for 2 hr either on Sdc1-specific antibody B-B4 to engage Sdc1 or on VN (10 μg/ml coating concentration) to engage the αvβ3 and αvβ5 integrins. Blocking antibodies LM609 (10 μg/ml, specific for αvβ3) and P1F6 (10 μg/ml, specific for αvβ5), SSTN (0.5 μM) or recombinant mouse Sdc1 ectodomain (mS1ED, 5 μM) were added. The ligand mimetic antibody WOW1 was used to detect activated αvβ3 integrin on cells plated on B-B4. (FIG. 10B) HMECs were treated with siRNA oligo specific for human Sdc1 for 48 hr prior to plating on VN. Sdc1 expression was quantified by flow cytometry using human Sdc1-specific mAb B-B4 or a control mouse IgG. (FIG. 10C-10D) The percentage of cell attaching or attaching and spreading was quantified for HMECs, HAEC and MAECs plated on VN for 24 hr in the presence of mS1ED or SSTN, or after siRNA silencing of Sdc1 expression in the presence of mAb LM609 to block αvβ3 integrin, P1F6 to block αvβ5 integrin, or both antibodies.
The next test was whether agents that target Sdc1, especially competition with recombinant S1ED, will block the activity of these two integrins and thus block their interaction with VN. […]

[4] = tested on: human aortic endothelial cells (HAEC); test: Cell attachment and spreading on VN, HAECs; type: cell-based
Method: FIG. 2—Human aortic endothelial cells rely on αvβ3 and αvβ5 integrins for spreading on VN. Human aortic endothelial cells (HAECs) were suspended and replated on 10 μg/ml VN in the presence of integrin inhibitory antibodies mAb 13 (specific for β1-containing integrins; this will inhibit the αvβ1 integrin), LM609 (specific for the αvβ3 integrin) and P1F6 (specific for the αvβ5 integrin), or combinations of these mAbs. After 2 hr, the cells were fixed, stained with Alexa488-conjugated phalloidin to aid in visualization, and observed by fluorescence microscopy to document integrin-dependent spreading. Inhibition of spreading requires simultaneous inhibition of both αvβ3 and αvβ5 integrins.
FIG. 3—αvβ3 and αvβ5 integrin-mediated spreading of human aortic endothelial cells on VN is disrupted by recombinant Sdc1 ectodomain fusion protein. HAECs were plated on VN in the presence of no competitor, 1-10 μM GST-mS1ED (recombinant mouse Sdc1 ectodomain expressed as a fusion protein with GST) or GST alone.
FIG. 4—Inhibition of HAEC spreading on VN by silencing of Sdc-1. […]
FIGS. 10A-10D—Dependence of HMEC cell attachment and spreading on integrin activation by Sdc1 and its inhibition by SSTN. […] Sdc1 expression was quantified by flow cytometry using human Sdc1-specific mAb B-B4 or a control mouse IgG. […]

Molecule | IC50 (B82L fibroblasts [1]) [µM] | IC50 (B82L fibroblasts [2]) [µM] | spreading on VN [3] | IC50 ([4]; read-out: IC50, cell spreading on vitronectin) [µM] | cell spreading on VN ([4]; soluble competitor 1-10 μM (FIG. 3))
SNTETAFTSVLPAGEKPEEGEPVLHVEAEPGFTARDKEKEVTTRPRETV [synstatin82-130] | ~0.1 |  |  |  | 
S1ED: recombinant mouse Sdc1 ectodomain (amino acids 18-251), expressed in bacteria as GST fusion or 6×His-tagged protein (protein, left off: a dimerising Fc or GST, recombinant mouse Sdc1 ectodomain (amino acids 18-251), expressed in bacteria as GST fusion or 6×His-tagged protein) QPALPQIVAVNVPPEDQDGSGDDSDNFSGSGTGALPDTLSRQTPSTWKDVWLLTATPTAPEPTSSNTETAFTSVLPAGEKPEEGEPVLHVEAEPGFTARDKEKEVTTRPRETVQLPITQRASTVRVTTAQAAVTSHPHGGMQPGLHETSAPTAPGQPDHQPPRVEGGGTSVIKEVVEDGTANQLPAGEGSGEQDFTFETSGENTAVAAVEPGLRNQPPVDEGATGASQSLLDRK |  | 3 to 10 | blocked | ~1 | blocked
